Measured values as given in US20240279298A1 (BEIJING TUO JIE BIOPHARMACEUTICAL CO. LTD., priority 2021, published 2024).
Where a name gives a salt, the structure may show the parent alone. Each block holds one molecule with its values, some of them ahead of it. [ ]: non-standard residue; d: D form. Aib = CC(C)(N)C(=O)O

Experiments:
[1] = test system: insulin-induced hypoglycemia rat model; assay: Efficacy in insulin-induced hypoglycemic rat model; type: in vivo, SD rats; details: insulin 0.65 IU/kg subcutaneous at T0, phosphate buffer at 45 min (model control)
[2] = test system: human kidney microsomes; assay: Stability in human kidney microsome incubation system
[3] = in vitro; details: human, human kidney microsomes
[4] = target: human glucagon receptor (GCGR) (human, UniProt P47871 26-477); assay: cell-based or functional assay
[5] = target: T1, human glucose-dependent insulinotropic polypeptide receptor (GIPR) (human, UniProt P48546 22-466); assay: cell-based or functional assay
T1 sequence (looked up): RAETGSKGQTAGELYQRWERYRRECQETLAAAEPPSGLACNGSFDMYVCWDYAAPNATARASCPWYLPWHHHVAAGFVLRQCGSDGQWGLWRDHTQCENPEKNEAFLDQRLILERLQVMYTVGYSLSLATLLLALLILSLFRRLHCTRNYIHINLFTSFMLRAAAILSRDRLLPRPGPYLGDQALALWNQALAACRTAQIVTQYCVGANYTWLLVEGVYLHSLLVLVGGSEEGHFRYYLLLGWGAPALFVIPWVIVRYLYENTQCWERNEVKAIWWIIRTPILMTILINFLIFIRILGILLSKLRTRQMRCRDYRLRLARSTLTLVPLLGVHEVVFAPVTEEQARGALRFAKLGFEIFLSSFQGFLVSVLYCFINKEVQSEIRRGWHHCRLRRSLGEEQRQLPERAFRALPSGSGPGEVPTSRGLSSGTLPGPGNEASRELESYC

[6] = target: human glucagon-like peptide-1 receptor (GLP-1R) (human, UniProt P43220 24-463); assay: cell-based or functional assay

Sequence of human glucagon receptor (GCGR) (P47871 26-477): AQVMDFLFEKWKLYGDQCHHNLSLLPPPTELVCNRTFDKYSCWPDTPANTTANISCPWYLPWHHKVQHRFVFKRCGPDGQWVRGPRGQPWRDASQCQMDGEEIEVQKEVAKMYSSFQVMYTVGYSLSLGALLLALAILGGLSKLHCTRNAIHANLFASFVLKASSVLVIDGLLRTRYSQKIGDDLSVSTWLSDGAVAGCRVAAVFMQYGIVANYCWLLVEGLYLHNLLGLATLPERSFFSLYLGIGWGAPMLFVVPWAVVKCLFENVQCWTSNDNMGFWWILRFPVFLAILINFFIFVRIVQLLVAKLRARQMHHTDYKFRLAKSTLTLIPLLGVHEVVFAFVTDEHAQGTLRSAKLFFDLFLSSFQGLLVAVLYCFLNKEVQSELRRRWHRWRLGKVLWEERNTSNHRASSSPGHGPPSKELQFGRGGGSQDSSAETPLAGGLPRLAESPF

Molecule: Insulin: insulin, 0.65 IU/kg subcutaneous, used to induce hypoglycemia in the modeling groups [reference compound]
- Blood glucose 60 min [1]: 3.47 mmol/L
- Blood glucose 75 min [1]: 4.15 mmol/L
- Blood glucose 90 min [1]: 4.85 mmol/L
- Blood glucose 105 min [1]: 5.42 mmol/L

Molecule: CN(C)CCCOc1nn(Cc2ccccc2)c2ccccc12 [Benzydamine hydrochloride, benzydamine hydrochloride]
- Percentage residues 0 min ([2]; With NADPH): 100.0%
- Percentage residues 120 min ([2]; With NADPH): 28.12%
- Percentage residues 0 min ([2]; Without NADPH): 100.0%
- Percentage residues 15 min ([2]; Without NADPH): 85.59%
- Percentage residues 30 min ([2]; Without NADPH): 86.82%
- Percentage residues 60 min ([2]; Without NADPH): 90.39%
- Percentage residues 120 min ([2]; Without NADPH): 90.95%
- half-life at 1 μM [3]: 1.1 h
- remaining at 0.25 h, 1 μM [3]: 83.1%
- remaining at 0.5 h, 1 μM [3]: 70.8%
- remaining at 1 h, 1 μM [3]: 54.2%

B2: Glucagon analog compound 42 (peptide)
peptide: H-HSQGTFTSDYSKYLDI[Aib]RAQEFVQWLEST-OH
SMILES: CC[C@H](C)[C@H](NC(=O)[C@H](CC(=O)O)NC(=O)[C@H](CC(C)C)NC(=O)[C@H](Cc1ccc(O)cc1)NC(=O)[C@H](CCCCN)NC(=O)[C@H](CO)NC(=O)[C@H](Cc1ccc(O)cc1)NC(=O)[C@H](CC(=O)O)NC(=O)[C@H](CO)NC(=O)[C@@H](NC(=O)[C@H](Cc1ccccc1)NC(=O)[C@@H](NC(=O)CNC(=O)[C@H](CCC(N)=O)NC(=O)[C@H](CO)NC(=O)[C@@H](N)Cc1c[nH]cn1)[C@@H](C)O)[C@@H](C)O)C(=O)NC(C)(C)C(=O)N[C@@H](CCCNC(=N)N)C(=O)N[C@@H](C)C(=O)N[C@@H](CCC(N)=O)C(=O)N[C@@H](CCC(=O)O)C(=O)N[C@@H](Cc1ccccc1)C(=O)N[C@H](C(=O)N[C@@H](CCC(N)=O)C(=O)N[C@@H](Cc1c[nH]c2ccccc12)C(=O)N[C@@H](CC(C)C)C(=O)N[C@@H](CCC(=O)O)C(=O)N[C@@H](CO)C(=O)N[C@H](C(=O)O)[C@@H](C)O)C(C)C
- Human GCGR receptor EC50 (nM), cAMP HTRF in CHO-K1/GCGR/CRE-Luc cells [4]: 0.093 nM
- Relative activity (%) (normalized by the activity of the native glucagon), cAMP HTRF [4]: 207%
- GIPR % Activity relative to native GIP, cAMP HTRF [5]: < 0.07%
- GIPR EC50 (nM), cAMP HTRF in CHO-K1/GIPR cells [5]: > 100 nM
- GLP-1R % Activity relative to native GLP-1, cAMP HTRF [6]: 0.291%
- GLP-1R EC50 (nM), cAMP HTRF in CHO-GLP-1R cells [6]: 92.1 nM

B4: Glucagon analog compound 47 (peptide)
peptide: H-HSHGTFTSDYSKYLDL[Aib]RAQEFVEWLEST-OH
SMILES: CC(C)C[C@H](NC(=O)[C@H](Cc1ccc(O)cc1)NC(=O)[C@H](CCCCN)NC(=O)[C@H](CO)NC(=O)[C@H](Cc1ccc(O)cc1)NC(=O)[C@H](CC(=O)O)NC(=O)[C@H](CO)NC(=O)[C@@H](NC(=O)[C@H](Cc1ccccc1)NC(=O)[C@@H](NC(=O)CNC(=O)[C@H](Cc1c[nH]cn1)NC(=O)[C@H](CO)NC(=O)[C@@H](N)Cc1c[nH]cn1)[C@@H](C)O)[C@@H](C)O)C(=O)N[C@@H](CC(=O)O)C(=O)N[C@@H](CC(C)C)C(=O)NC(C)(C)C(=O)N[C@@H](CCCNC(=N)N)C(=O)N[C@@H](C)C(=O)N[C@@H](CCC(N)=O)C(=O)N[C@@H](CCC(=O)O)C(=O)N[C@@H](Cc1ccccc1)C(=O)N[C@H](C(=O)N[C@@H](CCC(=O)O)C(=O)N[C@@H](Cc1c[nH]c2ccccc12)C(=O)N[C@@H](CC(C)C)C(=O)N[C@@H](CCC(=O)O)C(=O)N[C@@H](CO)C(=O)N[C@H](C(=O)O)[C@@H](C)O)C(C)C
- Human GCGR receptor EC50 (nM), cAMP HTRF in CHO-K1/GCGR/CRE-Luc cells [4]: 0.076 nM
- Relative activity (%) (normalized by the activity of the native glucagon), cAMP HTRF [4]: 253%

B6: Glucagon analog compound 39 (peptide)
peptide: H-HSQGTFTSDYSKYLDT[Aib]RAQEFVQWLEST-OH
SMILES: CC(C)C[C@H](NC(=O)[C@H](Cc1c[nH]c2ccccc12)NC(=O)[C@H](CCC(N)=O)NC(=O)[C@@H](NC(=O)[C@H](Cc1ccccc1)NC(=O)[C@H](CCC(=O)O)NC(=O)[C@H](CCC(N)=O)NC(=O)[C@H](C)NC(=O)[C@H](CCCNC(=N)N)NC(=O)C(C)(C)NC(=O)[C@@H](NC(=O)[C@H](CC(=O)O)NC(=O)[C@H](CC(C)C)NC(=O)[C@H](Cc1ccc(O)cc1)NC(=O)[C@H](CCCCN)NC(=O)[C@H](CO)NC(=O)[C@H](Cc1ccc(O)cc1)NC(=O)[C@H](CC(=O)O)NC(=O)[C@H](CO)NC(=O)[C@@H](NC(=O)[C@H](Cc1ccccc1)NC(=O)[C@@H](NC(=O)CNC(=O)[C@H](CCC(N)=O)NC(=O)[C@H](CO)NC(=O)[C@@H](N)Cc1c[nH]cn1)[C@@H](C)O)[C@@H](C)O)[C@@H](C)O)C(C)C)C(=O)N[C@@H](CCC(=O)O)C(=O)N[C@@H](CO)C(=O)N[C@H](C(=O)O)[C@@H](C)O
- Human GCGR receptor EC50 (nM), cAMP HTRF in CHO-K1/GCGR/CRE-Luc cells [4]: 0.072 nM
- Relative activity (%) (normalized by the activity of the native glucagon), cAMP HTRF [4]: 268%
- GIPR % Activity relative to native GIP, cAMP HTRF [5]: < 0.07%
- GIPR EC50 (nM), cAMP HTRF in CHO-K1/GIPR cells [5]: > 100 nM
- GLP-1R % Activity relative to native GLP-1, cAMP HTRF [6]: 0.212%
- GLP-1R EC50 (nM), cAMP HTRF in CHO-GLP-1R cells [6]: 127 nM

Now from value to molecule:

- Human GCGR receptor EC50 (nM), cAMP HTRF in CHO-K1/GCGR/CRE-Luc cells [4]: 0.058 nM
- Relative activity (%) (normalized by the activity of the native glucagon), cAMP HTRF [4]: 333%
- GIPR % Activity relative to native GIP, cAMP HTRF [5]: < 0.07%
- GIPR EC50 (nM), cAMP HTRF in CHO-K1/GIPR cells [5]: > 100 nM
- GLP-1R % Activity relative to native GLP-1, cAMP HTRF [6]: 0.231%
- GLP-1R EC50 (nM), cAMP HTRF in CHO-GLP-1R cells [6]: 116 nM
B1: Glucagon analog compound 41 (peptide)
peptide: H-HSQGTFTSDYSKYLDV[Aib]RAQEFVQWLEST-OH
SMILES: CC(C)C[C@H](NC(=O)[C@H](Cc1c[nH]c2ccccc12)NC(=O)[C@H](CCC(N)=O)NC(=O)[C@@H](NC(=O)[C@H](Cc1ccccc1)NC(=O)[C@H](CCC(=O)O)NC(=O)[C@H](CCC(N)=O)NC(=O)[C@H](C)NC(=O)[C@H](CCCNC(=N)N)NC(=O)C(C)(C)NC(=O)[C@@H](NC(=O)[C@H](CC(=O)O)NC(=O)[C@H](CC(C)C)NC(=O)[C@H](Cc1ccc(O)cc1)NC(=O)[C@H](CCCCN)NC(=O)[C@H](CO)NC(=O)[C@H](Cc1ccc(O)cc1)NC(=O)[C@H](CC(=O)O)NC(=O)[C@H](CO)NC(=O)[C@@H](NC(=O)[C@H](Cc1ccccc1)NC(=O)[C@@H](NC(=O)CNC(=O)[C@H](CCC(N)=O)NC(=O)[C@H](CO)NC(=O)[C@@H](N)Cc1c[nH]cn1)[C@@H](C)O)[C@@H](C)O)C(C)C)C(C)C)C(=O)N[C@@H](CCC(=O)O)C(=O)N[C@@H](CO)C(=O)N[C@H](C(=O)O)[C@@H](C)O

- Human GCGR receptor EC50 (nM), cAMP HTRF in CHO-K1/GCGR/CRE-Luc cells [4]: 0.06 nM
- Relative activity (%) (normalized by the activity of the native glucagon), cAMP HTRF [4]: 318%
- GIPR % Activity relative to native GIP, cAMP HTRF [5]: < 0.07%
- GIPR EC50 (nM), cAMP HTRF in CHO-K1/GIPR cells [5]: > 100 nM
- GLP-1R % Activity relative to native GLP-1, cAMP HTRF [6]: 0.192%
- GLP-1R EC50 (nM), cAMP HTRF in CHO-GLP-1R cells [6]: 140 nM
B3: Glucagon analog compound 40 (peptide)
peptide: H-HSQGTFTSDYSKYLDL[Aib]RAQEFVQWLEST-OH
SMILES: CC(C)C[C@H](NC(=O)[C@H](Cc1ccc(O)cc1)NC(=O)[C@H](CCCCN)NC(=O)[C@H](CO)NC(=O)[C@H](Cc1ccc(O)cc1)NC(=O)[C@H](CC(=O)O)NC(=O)[C@H](CO)NC(=O)[C@@H](NC(=O)[C@H](Cc1ccccc1)NC(=O)[C@@H](NC(=O)CNC(=O)[C@H](CCC(N)=O)NC(=O)[C@H](CO)NC(=O)[C@@H](N)Cc1c[nH]cn1)[C@@H](C)O)[C@@H](C)O)C(=O)N[C@@H](CC(=O)O)C(=O)N[C@@H](CC(C)C)C(=O)NC(C)(C)C(=O)N[C@@H](CCCNC(=N)N)C(=O)N[C@@H](C)C(=O)N[C@@H](CCC(N)=O)C(=O)N[C@@H](CCC(=O)O)C(=O)N[C@@H](Cc1ccccc1)C(=O)N[C@H](C(=O)N[C@@H](CCC(N)=O)C(=O)N[C@@H](Cc1c[nH]c2ccccc12)C(=O)N[C@@H](CC(C)C)C(=O)N[C@@H](CCC(=O)O)C(=O)N[C@@H](CO)C(=O)N[C@H](C(=O)O)[C@@H](C)O)C(C)C

- Human GCGR receptor EC50 (nM), cAMP HTRF in CHO-K1/GCGR/CRE-Luc cells [4]: 0.052 nM
- Relative activity (%) (normalized by the activity of the native glucagon), cAMP HTRF [4]: 371%
B5: Glucagon analog compound 43 (peptide)
peptide: H-HSHGTFTSDYSKYLDL[Aib]RAQEFVQWLEST-OH
SMILES: CC(C)C[C@H](NC(=O)[C@H](Cc1ccc(O)cc1)NC(=O)[C@H](CCCCN)NC(=O)[C@H](CO)NC(=O)[C@H](Cc1ccc(O)cc1)NC(=O)[C@H](CC(=O)O)NC(=O)[C@H](CO)NC(=O)[C@@H](NC(=O)[C@H](Cc1ccccc1)NC(=O)[C@@H](NC(=O)CNC(=O)[C@H](Cc1c[nH]cn1)NC(=O)[C@H](CO)NC(=O)[C@@H](N)Cc1c[nH]cn1)[C@@H](C)O)[C@@H](C)O)C(=O)N[C@@H](CC(=O)O)C(=O)N[C@@H](CC(C)C)C(=O)NC(C)(C)C(=O)N[C@@H](CCCNC(=N)N)C(=O)N[C@@H](C)C(=O)N[C@@H](CCC(N)=O)C(=O)N[C@@H](CCC(=O)O)C(=O)N[C@@H](Cc1ccccc1)C(=O)N[C@H](C(=O)N[C@@H](CCC(N)=O)C(=O)N[C@@H](Cc1c[nH]c2ccccc12)C(=O)N[C@@H](CC(C)C)C(=O)N[C@@H](CCC(=O)O)C(=O)N[C@@H](CO)C(=O)N[C@H](C(=O)O)[C@@H](C)O)C(C)C
